The values below come from patent US20260224701A1.

In assay [1] the target is Human rhB7-H3 (human) (UniProt Q5ZPR3). Kind of assay: SPR (Biacore 8K/T200), purified IgG as ligand, rhB7-H3 as analyte. A general note: Surface plasmon resonance follows binding to a sensor surface in real time, without labels.
For assay [2], the target named is human 4Ig-B7-H3 extracellular domain (human) (UniProt Q5ZPR3). Kind of assay: biolayer interferometry (Octet); ratio of the KD values against 2Ig-B7-H3 as reference. (BLI is a label-free optical method that tracks binding on a fibre tip over time.)
Assay [3] has the same target. The experiment in a line: biolayer interferometry (Octet), antibody captured on the probe, extracellular domain in solution.
Assay [4] has as its target Human rhB7-H3 (human) (UniProt Q5ZPR3). Kind of assay: SPR (Biacore 8K/T200), Fab-SASA captured on immobilised albumin, B7-H3 as analyte, 1:1 model.
For assay [5] the target is unchanged. Kind of assay: SPR (Biacore 8K/T200), antibody captured via Fc, B7-H3 antigen as analyte at 1.17-75 nM.
The target of assay [6] is Porcine 4Ig-B7-H3 extracellular domain (porcine). Kind of assay: biolayer interferometry (Octet), antibody captured on the probe, extracellular domain in solution.
In assay [7] the target is human 2Ig-B7-H3 extracellular domain (human) (UniProt Q5ZPR3). The description is as above.

Numbering of substitutions follows the chain as printed.

Chain of human 4Ig-B7-H3 extracellular domain (human) (Q5ZPR3 29-466): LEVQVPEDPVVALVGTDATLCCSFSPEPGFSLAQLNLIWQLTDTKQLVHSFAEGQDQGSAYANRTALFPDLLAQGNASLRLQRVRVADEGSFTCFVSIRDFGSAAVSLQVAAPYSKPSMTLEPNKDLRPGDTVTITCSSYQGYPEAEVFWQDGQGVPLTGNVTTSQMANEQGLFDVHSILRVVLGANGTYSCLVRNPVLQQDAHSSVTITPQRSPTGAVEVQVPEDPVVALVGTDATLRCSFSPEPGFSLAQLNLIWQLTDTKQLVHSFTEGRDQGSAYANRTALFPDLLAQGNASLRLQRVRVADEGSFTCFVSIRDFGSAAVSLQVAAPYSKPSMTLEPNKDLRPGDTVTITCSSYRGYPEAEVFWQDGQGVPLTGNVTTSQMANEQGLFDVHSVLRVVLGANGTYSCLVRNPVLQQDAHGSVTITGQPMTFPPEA
Chain of Porcine 4Ig-B7-H3 extracellular domain (porcine) (chain, as listed by the source): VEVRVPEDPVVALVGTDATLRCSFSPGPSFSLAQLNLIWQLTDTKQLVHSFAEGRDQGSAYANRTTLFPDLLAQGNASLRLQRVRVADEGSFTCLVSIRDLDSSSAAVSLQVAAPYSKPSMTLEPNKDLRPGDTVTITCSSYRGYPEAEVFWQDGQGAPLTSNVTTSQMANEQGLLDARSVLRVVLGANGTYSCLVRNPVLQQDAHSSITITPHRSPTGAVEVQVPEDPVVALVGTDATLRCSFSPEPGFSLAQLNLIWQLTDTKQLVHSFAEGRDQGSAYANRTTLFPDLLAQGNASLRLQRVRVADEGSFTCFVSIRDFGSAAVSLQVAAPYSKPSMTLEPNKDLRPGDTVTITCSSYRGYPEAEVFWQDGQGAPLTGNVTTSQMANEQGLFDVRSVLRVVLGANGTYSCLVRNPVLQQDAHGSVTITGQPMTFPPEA

B1: MIL33B-H3-hIgG1 (antibody, V domains shown)
VH: QVQLVQSGAEVKKPGASVKVSCKASGYTFTSYVMHWVRQAPGQRLEWMGYINSYSDGTKYNEKFKGRVTITRDTSASTAYMELSSLRSEDTAVYYCARWGGLGNGAMDYWGQGTLVTVSS
VL: EIVLTQSPATLSLSPGERATLSCSVSSSVNYMHWYQQKPGQAPRRLIYDTSKLASGIPARFSGSGSGTDYTLTISSLEPEDFAVYYCQQWTSNPLTFGQGTKLEIK
As to B1, in assay [1], the Kd (commonly the concentration at which binding is half-saturated) amounted to 0.243 nM; the koff (in general, the rate constant with which the complex falls apart) amounted to 0.000117 s⁻¹; the kon – broadly, the second-order rate constant of association – came to 481000 M⁻¹ s⁻¹. The selectivity ratio, 4Ig-B7-H3 over 2Ig-B7-H3 in assay [2] amounted to 360. The Kd in assay [3] came to 0.121 nM.

B2: Grafted Fab-SASA (Fab, V domains shown)
VH: B1 VH
VL: EIVLTQSPATLSLSPGERATLSCSVSSSVNYMHWYQQKPGQAPRLLIYDTSKLASGIPARFSGSGSGTDFTLTISSLEPEDFAVYYCQQWTSNPLTFGQGTKLEIKR
B2: in assay [4], the Kd is 28.5 nM, the koff turned out to be 0.0117 s⁻¹ and the kon came to 413000 M⁻¹ s⁻¹.

B3: AHF15938 Fab-SASA (Fab, V domains shown)
VH: B1 VH with V68A
VL: B1 VL
In assay [4], B3 returned a Kd of 0.00804 nM, a koff of 1.97e-06 s⁻¹ and an on-rate constant (kon) of 245000 M⁻¹ s⁻¹.

B4: AHF15948 Fab-SASA (Fab, V domains shown)
VH: B1 VH
VL: B1 VL
Turning to B4, in assay [4], the Kd was found to be 0.366 nM, the koff was found to be 9.35e-05 s⁻¹ and the kon was determined as 255000 M⁻¹ s⁻¹.

B5: MIL33B-H1-hIgG1 (antibody, V domains shown)
VH: B1 VH with R72S
VL: B1 VL
In assay [1], B5 had a Kd of 0.233 nM, a koff of 0.000139 s⁻¹ and a kon of 597000 M⁻¹ s⁻¹. In addition, the Kd in assay [3] was determined as 0.153 nM.

B6: AHF15945 Fab-SASA (Fab, V domains shown)
VH: B1 VH with R72S
VL: B1 VL
Regarding B6, in assay [4], the Kd stood at 0.888 nM, the koff was 0.000244 s⁻¹ and the kon came to 274000 M⁻¹ s⁻¹.

B7: MIL33B-H2-hIgG1 (antibody, V domains shown)
VH: B1 VH with V68A
VL: B1 VL
As to B7, in assay [1], the Kd was 0.226 nM, the koff came out at 0.000105 s⁻¹ and the kon is 464000 M⁻¹ s⁻¹. In assay [3], this molecule showed a Kd of 0.12 nM.

B8: MIL33B chimeric antibody (full-length IgG) (antibody, V domains shown)
VH: EVQLQQSGPELVKPGASVKMSCKASGYTFTSYVMHWVRQSPGQGLEGIGYINSYSDGTKYNEKFKGKATLTSDKSSSTAYMELSGLTSEDSAVYYCARWGGLGNGAMDYWGQGTSVTVSS
VL: QIVLTQSPAIMSASPGEKVTMTCSVSSSVNYMHWYQQKSGTSPKRWIYDTSKLASGVPARFSASGSGTSYSLTISSMEAEDAATYYCQQWTSNPLTFGAGTKLELKR
As to B8, in assay [1], the Kd stood at 0.148 nM, the koff came to 7.16e-05 s⁻¹ and the kon worked out at 482000 M⁻¹ s⁻¹. In assay [5], the Kd is 0.199 nM, the koff came out at 0.000121 s⁻¹ and the kon turned out to be 609000 M⁻¹ s⁻¹. For the same molecule, the Kd in assay [3] is 0.16 nM.

B9: MIL33B-mIgG2a (murine MIL33B antibody) (antibody, from a related filing, V domains shown)
VH: B8 VH
VL: QIVLTQSPAIMSASPGEKVTMTCSVSSSVNYMHWYQQKSGTSPKRWIYDTSKLASGVPARFSASGSGTSYSLTISSMEAEDAATYYCQQWTSNPLTFGAGTKLELK
Regarding B9, the Kd in assay [6] came to 0.102 nM; in assay [7] it was 0.781 nM; in assay [3], 0.0807 nM.

B10: Chimeric Fab-SASA (Fab, V domains shown)
VH: B8 VH
VL: B8 VL
For the molecule B10, in assay [4], the Kd turned out to be 0.499 nM, the koff worked out at 0.000131 s⁻¹ and the kon was 262000 M⁻¹ s⁻¹.
